The values that follow come from patent publication US10246721B2, “Sugar transporters” (CARNEGIE INSTITUTION OF WASHINGTON, priority 2009, dated 2019).

“Also recorded” adds a separate entry of the source.

The target in assay [1] is T1, SWEET1 (Arabidopsis thaliana, UniProt Q8L9J7).
T1 sequence (Q8L9J7 1-247): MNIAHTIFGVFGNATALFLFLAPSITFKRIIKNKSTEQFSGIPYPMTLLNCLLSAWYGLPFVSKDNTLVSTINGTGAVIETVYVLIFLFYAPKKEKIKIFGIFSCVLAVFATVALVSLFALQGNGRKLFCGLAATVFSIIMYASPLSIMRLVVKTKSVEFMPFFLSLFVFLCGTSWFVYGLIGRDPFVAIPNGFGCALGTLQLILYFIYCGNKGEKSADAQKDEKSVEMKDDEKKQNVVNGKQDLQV
The experiment in a line: Inhibition of SWEET1-mediated glucose uptake in yeast EBY4000 by competing sugars. It is filed as cell-based. Further details: SWEET1, SWEET8 and OsSWEET11 ORFs were amplified by RT-PCR using specific primers from Arabidopsis and rice, respectively. As to conditions: 5 mM D-glucose; competitor at 10-fold excess (50 mM). As for the experimental part: Competitors were added at 10-fold excess (final concentration 50 mM). Relative activity was normalized to D-glucose uptake rate [100%]. Data are mean±S.D.
Yeast uptake. Yeast cells were grown in SD medium supplemented 2% maltose and auxotrophic markers. Cells were harvested at OD600 0.5-0.7 by centrifugation, and washed twice in ice-cold distilled water. Cell pellets were weighed after the supernatant had been removed. Cells were resuspended 5-10% (w/v) in 40 mM potassium phosphate buffer, pH 6.0. Cells were pre-incubated in potassium phosphate buffer for 5 min at 30° C. For each reaction, 330 μl pre-warmed buffer containing 20 mM glucose (0.55 μCi D-[U-^14C] glucose; 590 KBq/μmol, Amersham Pharmacia Biotech Inc.) was added to an equal volume of cells. 120 μl aliquot were withdrawn and transferred to the ice-cold water. Cells were harvested by vacuum filtration onto a glassfiber filters (GF/C, Whatman), and washed twice in 10 ml ice-cold water. Filters were transferred to scintillation vials containing 5 ml of Ultima Gold XR Scintillator liquid (Perkin Elmer). Radioactivity taken up by the cells was measured by liquid scintillation spectrometry. To determine substrate specificity for SWEET1 compared to D-glucose, a ten-fold excess of competing sugar species was used. To determine the pH-dependence of SWEET1 activity, 40 mM potassium phosphate uptake buffer at specified pH was used. […]

For assay [2], the target named is T1, SWEET1. The experiment in a line: FRET glucose sensor FLIPglu600μΔ13V co-transfected with SWEET1 in HEK293T cells, cytochalasin B. It is filed as cell-based. Further details: SWEET1, SWEET8 and OsSWEET11 ORFs were amplified by RT-PCR using specific primers from Arabidopsis and rice, respectively; expressed in transfected cells; host or cells: HEK293T. As to conditions: 20 μM cytochalasin B. As for the experimental part:
Similar results were obtained for several Arabidopsis paralogs of this gene family.
FRET analysis. Cell culture, transfection, image acquisition and FRET analysis were performed as described previously.
To identify novel glucose transporters from the reference plant Arabidopsis, genes encoding uncharacterized polytopic membrane proteins from the plant membrane protein database Aramemnon, available on the internet at “aramemnon.botanik.uni-koeln.de”,—were screened using a mammalian expression system. Candidate genes were coexpressed with a high-sensitivity FRET glucose sensor (i.e. FLIPglu600μΔ13V) in human embryonic kidney HEK293T cells, which are characterized by low endogenous glucose uptake activity. […] To determine whether SWEET1 can also mediate efflux from the cytosol, we expressed the FRET glucose sensor FLIPglu600μΔ13V^ER in the lumen of the endoplasmic reticulum (ER; FIG. 9B). Topologically, uptake across the plasma membrane (PM) is initiated from the extracellular side of the carrier, while ‘export’ to the ER is initiated from the cytoplasmic side of the transporter (FIG. 9C). […] SWEET1 may thus function as a glucose uniporter, for which the direction of transport depends only on the glucose gradient across the membrane. […]

The test system of assay [3] is Xenopus oocytes. The experiment in a line: Tracer efflux assay in Xenopus oocytes injected with [14C]-glucose. Particulars: S.E., n>7. It is filed as cell-based, Xenopus laevis. As to the method:
50 nl of 10 mM radiolabeled glucose (0.18 μCi/μl) were injected and radiotracer efflux was measured over time. Data are mean±SE (n>10 cells).
Tracer efflux assay in Xenopus oocytes. Efflux was measured essentially as described. Three days after cRNA injection, oocytes were injected with 50 nl solution containing 10 mM D-glucose with 0.18 μCi/μl D-[^14C(U)]-glucose. Cells were immediately washed once in MBS. At defined time points, the reaction buffer (950 μl) was removed for scintillation counting and replaced with fresh medium. Finally, the oocytes were solubilized with 1% SDS and analyzed for radioactivity.
The ORF of SGLT1 (Invitrogen, Carlsbad, Calif.) was amplified by PCR and cloned into pCR2.1-TOPO (Invitrogen). The SGLT1 ORF was excised with EcoRI/XhoI and cloned into the corresponding sites in pOO2. The splice variant RAG1AP1-1 in pDNR-LIB (Clone ID: 4076256, Open Biosystems, Huntsville, Ala.) was restricted with EcoRI/XhoI and cloned into pOO2. RAG1AP1-2 in pCMV-SPORT6 (Clone ID: 3896154, Open Biosystems, Huntsville, Ala.) was transferred into the pOO2-GW (D. Loqué, unpublished) by in vitro LR recombination (Gateway). RAG1AP1-3aa was mutated to Y216A, L218A, L219A (putative internalization motifs) by site-directed mutagenesis and cloned by in vitro BP recombination in pDONR221-f1 and further mobilized into pOO2-GW by LR reaction. […]

The next assay deals with T2, SGLT1 (Homo sapiens, UniProt P13866).
T2 construct: The ORF of SGLT1 (Invitrogen, Carlsbad, Calif.) was amplified by PCR and cloned into pCR2.1-TOPO; host or cells: Xenopus laevis oocytes injected with cRNA from pOO2
T2 sequence (P13866 1-664): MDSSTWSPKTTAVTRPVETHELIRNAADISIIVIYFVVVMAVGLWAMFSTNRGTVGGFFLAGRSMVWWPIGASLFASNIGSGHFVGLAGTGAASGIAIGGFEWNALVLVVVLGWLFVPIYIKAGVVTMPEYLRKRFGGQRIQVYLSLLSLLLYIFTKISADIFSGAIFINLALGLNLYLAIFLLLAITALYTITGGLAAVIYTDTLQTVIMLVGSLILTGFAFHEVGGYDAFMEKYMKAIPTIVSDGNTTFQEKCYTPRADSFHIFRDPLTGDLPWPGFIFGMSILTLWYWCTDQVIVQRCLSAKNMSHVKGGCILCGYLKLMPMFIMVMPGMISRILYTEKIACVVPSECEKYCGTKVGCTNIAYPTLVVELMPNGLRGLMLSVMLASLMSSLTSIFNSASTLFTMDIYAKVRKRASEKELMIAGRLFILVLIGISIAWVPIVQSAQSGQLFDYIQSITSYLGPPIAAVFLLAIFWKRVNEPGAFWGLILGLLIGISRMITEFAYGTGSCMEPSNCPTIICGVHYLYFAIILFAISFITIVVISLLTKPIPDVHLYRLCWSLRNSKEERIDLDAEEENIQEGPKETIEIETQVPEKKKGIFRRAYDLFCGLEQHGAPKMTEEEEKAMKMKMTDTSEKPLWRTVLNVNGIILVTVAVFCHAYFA
The experiment in a line: Coexpression with SGLT1 in Xenopus oocytes, glucose accumulation. The class given is cell-based. Particulars: coexpressed with SGLT1. From the text:
Data are mean±SE, n=7. Inset indicates concentrative uptake of glucose by SGLT 1 and glucose efflux (‘leak’) caused by OsSWEET11.
All experiments were repeated independently at least 6 times. Error bars are means±SD.
Human SGLT1 sodium glucose cotransporter (“S”) which has been previously shown to be a secondary active glucose importer. SGLT1 is […] expressed in Xenopus oocytes and can mediate uptake of 14C labelled glucose into the oocyte. When RAG1AP1 (“R”) is coexpressed, less uptake is seen in the oocytes. This is compatible with a glucose ‘leak’ due to RAG1AP1 activity that prevents high accumulation of glucose in the SGLT1 expressing cells.
Tracer uptake in Xenopus oocytes. The assay was performed with modification as described in Detaille et al. Two days after injection, groups of 7 to 16 oocytes were transferred into tubes containing 200 μL MBS and 1 mM D-glucose (4 μCi/ml D-[^14C(U)]-glucose; 319 mCi/mmol, PerkinElmer). After incubation at 20° C. for one hour, and the cells were washed by adding 1 ml ice-cold MBS. Incubation was stopped by adding ice-cold MBS buffer. The ooctyes were washed three times in ice-cold MBS buffer. The cells were solubilized with 100 μl 1% (w/v) SDS, and measured individually.
The ORF of SGLT1 (Invitrogen, Carlsbad, Calif.) was amplified by PCR and cloned into pCR2.1-TOPO (Invitrogen). […]

The test system of assay [4] is Xenopus oocytes. The experiment in a line: Tracer [14C]-glucose uptake in Xenopus oocytes. It is filed as cell-based, Xenopus laevis. Particulars: 1 mM D-glucose, 1 h. As to the method: Xenopus oocytes isolation and RNA injection. After linearization of the pOO2 plasmids with MluI, capped cRNAs were synthesized in vitro by SP6 RNA polymerase using mMESSAGE mMACHINE kit (Ambion, Inc., Austin, Tex.). Xenopus laevis oocytes were kindly provided by M. Goodman (Stanford University). Microinjection was carried out as described by Ballatori et al.. 25 ng to 50 ng of each cRNA was injected into healthy-looking oocytes (RNAse-free water was used as control). The injected oocytes were then maintained at 18° C. in modified Barth's saline (MBS: (in mM) 88 NaCl, 1 KCl, 2.4 NaHCO3, 0.82 MgSO4, 0.33 Ca(NO3)2, 0.41 CaCl2, and 20 HEPES-Tris, pH 7.5) with 100 μM gentamycin, 100 U/ml penicillin and 100 μM streptomycin solution for 2-3 d. The incubation buffer was changed once per day.
Tracer uptake in Xenopus oocytes. The assay was performed with modification as described in Detaille et al. Two days after injection, groups of 7 to 16 oocytes were transferred into tubes containing 200 μL MBS and 1 mM D-glucose (4 μCi/ml D-[^14C(U)]-glucose; 319 mCi/mmol, PerkinElmer). After incubation at 20° C. for one hour, and the cells were washed by adding 1 ml ice-cold MBS. Incubation was stopped by adding ice-cold MBS buffer. The ooctyes were washed three times in ice-cold MBS buffer. The cells were solubilized with 100 μl 1% (w/v) SDS, and measured individually. […]

The nature of assay [5]: 14C glucose uptake data for C. elegans homologs (FIG. 42). The class given is cell-based. As to conditions: 1 mM and 10 mM glucose. From the text:
FIGS. 42A and 42B show the 14C glucose uptake data for five of the C. elegans homologs.
At least 3, 4 nd 5 are active. (code for names of C elegans genes:Ce1: C06G8.1; Ce2: K06A4.4; Ce3: Y39A1A.8; Ce4: K11D12.5; Ce5: K02D7.5; (worm mutants of Ce5: K02D7.5 show increased fat accumulation, consistent with reduced efflux of glucose from these cells).

Regarding `CO[C@@H]([C@H](O)[C@H](O)CO)[C@@H](O)C=O` [3-O-methylglucose], the “inhibition of SWEET1-mediated glucose uptake by competitor sugar” value at SWEET1 [1] is reported as “marginally inhibited”.
As to `C=C1[C@@H](C)[C@H]2[C@H](Cc3ccccc3)NC(=O)[C@]23OC(=O)/C=C/[C@H](O)CCC[C@@H](C)C/C=C/[C@H]3[C@@H]1O` [cytochalasin B], the “effect of cytochalasin B on SWEET1 (GLUE1)-mediated glucose uptake” value at SWEET1 [2] was “insensitive; also recorded: did not affect; also recorded: insensitivity”.

B1: RAG1AP1: human homolog of the SWEET sugar transporters (SLC50) (protein)
chain: MEAGGFLDSLIYGACVVFTLGMFSAGLSDLRHMRMTRSVDNVQFLPFLTTEVNNLGWLSYGALKGDGILIVVNTVGAALQTLYILAYLHYCPRKRVVLLQTATLLGVLLLGYGYFWLLVPNPEARLQQLGLFCSVFTISMYLSPLADLAKVIQTKSTQCLSYPLTIATLLTSASWCLYGFRLRDPYIMVSNFPGIVTSFIRFWLFWKYPQEQDRNYWLLQT
For the molecule B1, in the assay on Xenopus oocytes [3], the “% glucose released within 2 min” value is on record as 5.27±0.29%. Moreover, the “effect of coexpression on SGLT1-mediated glucose accumulation in oocytes” value with SGLT1 is recorded as “less uptake; also recorded: counteract secondary active glucose accumulation; also recorded: counteracted SGLT1-mediated glucose accumulation”. Moreover, the “[14C]-glucose uptake into Xenopus oocytes” value in the assay with Xenopus oocytes [4] was “unable to mediate glucose accumulation”.

B2: CeSWEET1: C. elegans SWEET homolog (protein, UniProt O45102 1-299, looked up)
Sugar transporter SWEET1: MLEVVLQVLSISAITTTIALFFCGIPICMQIRRQGAVGDISGVPFLMGVLGGSFWLRYGLLKMDYVMIIVNVVGVACMAFYCVFFLIYSLPKKTFTCQLILVTSTIGGMVLWIALKPNLDYLGVICMTFNIMNFGAPLAGLGVVLKNREVSTLPLPMCVANFLVSSQWCLYGNLVSDIYIIIPNGIGMFLAIVQLALFVVLPIRENEKSPLEKLASWFTGRDSKVKDLERGDCIVSSPPSSPQKVPNETRSDVEDKFDKLMAETSSTIPSDSRRGSMGSPPSYKSRSSSDPDLSSIQSP
B2: the “14C glucose uptake activity” value in assay [5] was “active”. The “effect of coexpression on SGLT1-mediated glucose accumulation in oocytes” value with SGLT1 is recorded as “counteract secondary active glucose accumulation”. Moreover, the “[14C]-glucose uptake into Xenopus oocytes” value in the assay with Xenopus oocytes [4] is “mediates glucose uptake; also recorded: weak, but significant glucose uptake”.
